Results from PMC10153752, “Exo1 protects DNA nicks from ligation to promote crossover formation during meiosis”.

Molecular target: T1, exo1-D173A (Saccharomyces cerevisiae, UniProt P39875 1-702, D173A)
T1 sequence: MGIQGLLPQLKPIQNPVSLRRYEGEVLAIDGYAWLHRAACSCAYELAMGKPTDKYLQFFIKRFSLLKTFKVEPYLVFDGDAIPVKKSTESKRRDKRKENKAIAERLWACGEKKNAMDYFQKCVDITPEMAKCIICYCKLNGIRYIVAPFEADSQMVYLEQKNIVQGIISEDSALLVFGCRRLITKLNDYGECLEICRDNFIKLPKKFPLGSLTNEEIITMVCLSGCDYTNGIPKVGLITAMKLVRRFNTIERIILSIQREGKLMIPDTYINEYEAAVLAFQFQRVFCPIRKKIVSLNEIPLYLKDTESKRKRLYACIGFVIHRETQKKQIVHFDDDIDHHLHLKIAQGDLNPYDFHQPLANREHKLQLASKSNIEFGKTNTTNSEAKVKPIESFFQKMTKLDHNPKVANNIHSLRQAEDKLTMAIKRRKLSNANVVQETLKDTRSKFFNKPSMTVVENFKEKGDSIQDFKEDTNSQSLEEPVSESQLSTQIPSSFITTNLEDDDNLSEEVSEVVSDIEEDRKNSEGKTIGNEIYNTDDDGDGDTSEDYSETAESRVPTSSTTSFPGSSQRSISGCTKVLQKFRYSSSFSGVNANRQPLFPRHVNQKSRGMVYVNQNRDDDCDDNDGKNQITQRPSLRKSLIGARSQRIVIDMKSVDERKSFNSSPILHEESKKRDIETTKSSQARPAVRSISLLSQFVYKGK
Assay: filter binding; no added metal, 0.01 mM EDTA; 15 nM DNA, 35 mM NaCl, 20 mM Tris pH 7.5, 0.04 mg/ml BSA, 0.01 mM EDTA, 0.1 mM DTT, 60 ul, 10 min at 30 C; KOH-treated nitrocellulose filter binding
Settings: protein: recombinant; tags: FLAG; label: 5'-32P on AO3144 (8% labeled); nicked duplex with 19 nt 5' flap (AO3145 1-19); last 3 nt of AO3145 mismatch the 5' end of AO3144

B1: 19 nt 5' flap substrate (AO3145 + AO3940 annealed to AO3144) (dsDNA)
DNA 1: ACAGCTACCGAATTCTGACTTGCTAGGACATCTTTGCCCACGTTGACCC
DNA 2: TCGATAGTCTCTAGATAGCATGTCCTAGCAAGTCAGAATTCGGTAGCGTG
DNA 3: GGGTCAACGTGGGCAAAG
- binding result: binds
